Test results reported in US8513380B2, “Peptides for binding fibrinogen and fibrin” (Georgia Tech Research Corporation, priority 2009, dated 2013).
Where no end group is shown, it is not given here.

Columns and labels:
fibrinogen [1] = target: T1, fibrinogen (Homo sapiens, UniProt P02675+P02679); assay: Turbidity and percent clottability with PEGylated knob peptides; assay type: biochemical; conditions: 1:1 molar ratio; for percentage of clottable protein: no-peptide ˜95%
T1 sequence (P02679 27-433 limits assumed): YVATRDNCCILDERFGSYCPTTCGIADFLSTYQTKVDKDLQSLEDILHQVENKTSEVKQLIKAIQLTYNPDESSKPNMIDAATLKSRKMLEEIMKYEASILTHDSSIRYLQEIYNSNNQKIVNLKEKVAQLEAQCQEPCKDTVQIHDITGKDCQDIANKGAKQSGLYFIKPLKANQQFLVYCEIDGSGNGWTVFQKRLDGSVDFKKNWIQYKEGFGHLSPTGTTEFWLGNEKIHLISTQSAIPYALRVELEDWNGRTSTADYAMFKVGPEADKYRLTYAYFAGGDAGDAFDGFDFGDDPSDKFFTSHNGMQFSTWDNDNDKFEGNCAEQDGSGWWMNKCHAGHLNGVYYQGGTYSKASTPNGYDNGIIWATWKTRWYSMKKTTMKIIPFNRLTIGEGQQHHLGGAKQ
T1 sequence (P02675 31-491): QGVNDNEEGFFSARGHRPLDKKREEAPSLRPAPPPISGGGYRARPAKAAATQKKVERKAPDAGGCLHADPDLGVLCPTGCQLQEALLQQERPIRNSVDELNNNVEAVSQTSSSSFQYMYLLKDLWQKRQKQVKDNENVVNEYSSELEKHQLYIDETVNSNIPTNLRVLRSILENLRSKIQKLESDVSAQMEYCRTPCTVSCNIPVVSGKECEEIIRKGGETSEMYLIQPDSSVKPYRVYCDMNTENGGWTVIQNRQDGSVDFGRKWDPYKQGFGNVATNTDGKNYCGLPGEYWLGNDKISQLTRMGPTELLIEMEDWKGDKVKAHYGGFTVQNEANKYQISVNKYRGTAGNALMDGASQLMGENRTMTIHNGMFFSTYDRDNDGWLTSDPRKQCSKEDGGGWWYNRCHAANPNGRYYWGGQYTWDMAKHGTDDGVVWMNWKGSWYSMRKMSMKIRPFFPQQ
T1 sequence (P02671 20-629 partner limits assumed): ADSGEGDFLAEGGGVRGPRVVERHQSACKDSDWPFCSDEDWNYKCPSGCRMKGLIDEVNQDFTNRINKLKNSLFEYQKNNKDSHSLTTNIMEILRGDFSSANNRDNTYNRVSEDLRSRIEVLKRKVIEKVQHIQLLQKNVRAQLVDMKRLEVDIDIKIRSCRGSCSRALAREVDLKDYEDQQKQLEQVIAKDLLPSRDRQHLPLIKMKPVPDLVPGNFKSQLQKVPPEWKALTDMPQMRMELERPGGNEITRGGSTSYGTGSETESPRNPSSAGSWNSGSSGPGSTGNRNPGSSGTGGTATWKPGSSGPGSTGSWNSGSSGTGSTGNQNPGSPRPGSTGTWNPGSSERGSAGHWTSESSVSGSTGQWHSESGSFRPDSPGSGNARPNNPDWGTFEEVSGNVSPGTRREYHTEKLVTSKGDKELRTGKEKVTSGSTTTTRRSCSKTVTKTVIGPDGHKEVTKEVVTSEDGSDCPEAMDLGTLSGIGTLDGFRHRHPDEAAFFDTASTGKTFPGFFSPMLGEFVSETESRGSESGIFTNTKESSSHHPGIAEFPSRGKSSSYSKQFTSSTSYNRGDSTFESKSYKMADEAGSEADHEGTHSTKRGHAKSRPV
Protocol: Polymerization rate (turbidity curves), percent clottable protein, fiber structure (SEM), and viscoelastic properties of fibrin polymerized in the presence or absence of PEGylated-GPRPFPAC (5 kDa linear PEG chain, SED ID NO:53) at a 1:1 molar ratio were evaluated.
The turbidity curves upon initiating thrombin-activated polymerization and the amount of soluble protein remaining in the clot liquor after polymerization (percent clottable protein) were evaluated. All assays were performed with 1 mg/ml fibrinogen, 1 U/ml thrombin, 1 U/mL factor XIIIa, and 5 mM CaCl2; all PEG conjugates were tested at a 1:1 molar ratio.

fibrin = fibrin (Homo sapiens, UniProt P02675+P02679); conditions: cited from earlier work
fibrinogen [2] = target: T2, fibrinogen (Homo sapiens, UniProt P02675+P02679); assay: ELISA specificity assay: soluble Gxxx tetrapeptides competing with immobilized GPRP-FnIII9-10-C; assay type: binding; conditions: tetrapeptide in 10^2- to 10^4-fold molar excess; one-hour pre-incubation
T2 sequence (P02679 27-437 isoform P02679-2 limits assumed): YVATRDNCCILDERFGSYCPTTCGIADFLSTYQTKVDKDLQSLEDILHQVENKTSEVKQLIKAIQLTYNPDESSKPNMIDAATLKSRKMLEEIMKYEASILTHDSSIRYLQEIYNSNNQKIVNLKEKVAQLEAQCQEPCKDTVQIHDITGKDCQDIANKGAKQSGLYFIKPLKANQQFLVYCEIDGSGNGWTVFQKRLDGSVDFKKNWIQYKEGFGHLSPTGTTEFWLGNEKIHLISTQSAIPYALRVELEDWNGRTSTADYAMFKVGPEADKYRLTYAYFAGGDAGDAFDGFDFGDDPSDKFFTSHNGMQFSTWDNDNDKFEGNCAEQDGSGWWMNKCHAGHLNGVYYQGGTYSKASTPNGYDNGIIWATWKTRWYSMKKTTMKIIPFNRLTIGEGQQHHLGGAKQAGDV
T2 sequence (P02675 31-491): T1 sequence (P02675 31-491)
T2 sequence (P02671 20-629 partner limits assumed): T1 sequence (P02671 20-629 partner limits assumed)
Protocol: A modified ELISA technique was used to establish the affinity of fibrinogen for the various Gxxx-FnIII9-10-C (SEQ ID NO:20) proteins covalently immobilized on maleimide-activated plates via their C-terminal cysteines. Sulfhydryl-containing proteins/peptides were added to pre-blocked maleimide-activated 96-well plates (Pierce, Thermo Scientific, Rockford, Ill.) at 10 μg/mL in conjugation buffer (CB) comprising 150 mM NaCl, 100 mM phosphate, 10 mM EDTA, pH 7.2, with attachment occurring via maleimide-sulfhydryl (thioether) linkages. TCEP (1 mM) was added to maintain sulfhydryl groups in the reduced form. Following, unreacted maleimide groups were quenched with 20 μg/mL cysteine in CB. Human fibrinogen (25 μg/mL) was incubated with the substrates and unbound protein removed by washing. Bound fibrinogen was detected using HRP-conjugated goat anti-fibrinogen antibody (MP Biomedicals #55239) and 1-Step™ Ultra TMB-ELISA (Pierce). The TMB reaction was quenched with 1 M H2SO4 before measuring the Abs450 nm using the SPECTRAMAX® M2 (Molecular Devices, Sunnyvale, Calif.). All intervening wash steps were conducted using washing buffer (WB) comprising 150 mM NaCl, 100 mM phosphate, 0.05% Tween-20, pH 7.2; all binding steps were conducted using binding buffer (BB) comprising PBS+1% BSA. For basic affinity assays, the concentration of the fusion proteins was varied. For specificity assays, varying concentrations of Gxxx (SEQ ID NO:20) tetrapeptides (Genscript, Piscataway, N.J.) were added to the fibrinogen solution during incubation with the covalently immobilized proteins.
The tetrapeptides GPRV (SEQ ID NO:2) and GHRP (SEQ ID NO:3) are also known to bind fibrinogen via knob:pocket interactions, albeit with reduced affinities (Laudano A P, et al. Biochemistry 1980, 19(5):1013-1019).

| percentage of clottable protein (fibrinogen [1]) | Substance | maximum absorbance turbidity value (fibrinogen [1]; 1 mg/ml fibrinogen, 1 U/ml thrombin, 1 U/mL factor XIIIa) | excess necessary to completely inhibit fibrin assembly (fibrin) | competition with immobilized GPRP-FnIII9-10-C for binding to fibrinogen (fibrinogen [2]) |
| --- | --- | --- | --- | --- |
| 92% | GPRPFPAC-PEG: GPRPFPAC conjugated to 5 kDa linear PEG chain (also: conjugated to 5 kDa linear PEG, site not given here; listed as Homo sapiens) | lower maximum absorbance turbidity value | – | – |
| did not change | GPSPFPAC-PEG: control peptide conjugate, GPSPFPAC (SEQ ID NO:18) with PEG (also: PEG conjugate, site not given here; listed as Homo sapiens) [reference compound] | – | – | – |
| – | GPRP | – | ≥ 100 -fold excess | dose-dependent inhibition of fibrinogen binding |
